From patent publication US20180022794A1 (INSERM INSTITUT NATIONAL DE LA SANTE ET DE LA RECHERCHE …, published 2018)

Experiments:
Assay in all cases: binding kinetics, method not stated (Table 1)
RhoA Q63L = biological target: T1, RhoA Q63L (UniProt P61586 1-190, limits assumed)
T1 construct: also called RhoA Q63L (2SHA); constitutively active RhoA mutant

RhoB Q63L = biological target: T2, RhoB Q63L (UniProt P62745 1-193, limits assumed)
T2 construct: also called RhoB Q63L (2SHA); constitutively active RhoB mutant

RhoC Q63L = biological target: T3, RhoC Q63L (UniProt P08134 1-190, limits assumed)
T3 construct: also called RhoC Q63L (2SHA); constitutively active RhoC mutant

Rac Q61L = Rac Q61L (UniProt P63000 1-189)

T2 sequence (P62745 1-193 Q63L limits assumed): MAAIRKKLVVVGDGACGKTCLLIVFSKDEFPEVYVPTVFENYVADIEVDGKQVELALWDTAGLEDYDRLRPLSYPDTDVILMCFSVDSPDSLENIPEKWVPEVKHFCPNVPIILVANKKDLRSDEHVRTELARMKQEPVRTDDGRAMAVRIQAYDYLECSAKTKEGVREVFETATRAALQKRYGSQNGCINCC
T1 sequence (P61586 1-190 Q63L limits assumed): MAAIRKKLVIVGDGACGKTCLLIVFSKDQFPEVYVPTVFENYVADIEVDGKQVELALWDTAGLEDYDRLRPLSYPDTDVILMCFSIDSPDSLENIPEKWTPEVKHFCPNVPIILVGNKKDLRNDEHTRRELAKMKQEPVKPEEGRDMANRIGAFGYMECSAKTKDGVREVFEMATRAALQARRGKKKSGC
T3 sequence (P08134 1-190 Q63L limits assumed): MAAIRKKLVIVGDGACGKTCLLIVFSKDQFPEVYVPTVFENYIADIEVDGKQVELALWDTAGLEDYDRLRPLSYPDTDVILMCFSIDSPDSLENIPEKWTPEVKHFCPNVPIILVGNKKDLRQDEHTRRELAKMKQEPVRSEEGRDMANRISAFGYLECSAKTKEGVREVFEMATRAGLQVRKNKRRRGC

Row | Kd (RhoA Q63L) | koff (RhoA Q63L) | kon (RhoA Q63L) | Kd (RhoB Q63L) | koff (RhoB Q63L) | kon (RhoB Q63L) | Kd (RhoC Q63L) | koff (RhoC Q63L) | kon (RhoC Q63L) | Kd (Rac Q61L) | koff (Rac Q61L) | kon (Rac Q61L) | Binder
1 | 0.84 nM | 0.000686 s⁻¹ | 814000 M⁻¹ s⁻¹ | 5.21 nM | 0.0024 s⁻¹ | 462000 M⁻¹ s⁻¹ | 0.524 nM | 0.000901 s⁻¹ | 1.72e+06 M⁻¹ s⁻¹ | – | – | – | 5SNP48 hs2dAb (VHH) VHH: VQLQASGGGFVQPGGSLRLSCAASGTSWFTEVMGWFRQAPGKEREFVSAISGLHDVGTYYADSVKGRFTISRDNSKNTVYLQMNSLRAEDTATYYCAALDKWYTKAMDARKDYWGQGTQVTVSS
2 | – | – | – | 1.57 nM | 0.000359 s⁻¹ | 224000 M⁻¹ s⁻¹ | – | – | – | 0.33 nM | 0.000255 s⁻¹ | 753000 M⁻¹ s⁻¹ | H12 hs2dAb (VHH, Humanized synthetic single domain antibody; Soluble form was used in ELISA and immunofluorescence and detected through a myc tag; also called clone H12; H12 antibody) VHH: VQLQASGGGFVQPGGSLRLSCAASGDGSRIYAMGWFRQAPGKEREFVSAISWEQDWEHYYADSVKGRFTISRDNSKNTVYLQMNSLRAEDTATYYCAAFMTPHRNLTSMYWGQGTQVTVSS
3 | 1.31 nM | 0.0008 s⁻¹ | 1.05e+06 M⁻¹ s⁻¹ | – | – | – | 2.32 nM | 0.000625 s⁻¹ | 1.45e+06 M⁻¹ s⁻¹ | – | – | – | B6 hs2dAb (VHH, also called hs2dAb B6) VHH: VQLQASGGGFVQPGGSLRLSCAASGYGSTIETMGWFRQAPGKEREFVSAISRAPGPSQYYADSVKGRFTISRDNSKNTVYLQMNSLRAEDTATYYCAPINNRTMQDSMFLWNYWGQGTQVTVSS
4 | 1.21 nM | 0.0013 s⁻¹ | 1.1e+06 M⁻¹ s⁻¹ | 4.68 nM | 0.0033 s⁻¹ | 722000 M⁻¹ s⁻¹ | 5.3 nM | 0.0046 s⁻¹ | 875000 M⁻¹ s⁻¹ | – | – | – | 4SNP61 hs2dAb (VHH) VHH: VQLQASGGGFVQPGGSLRLSCAASGFTSTSTVMGWFRQAPGKEREFVSAISSAHTMDTYYADSVKGRFTISRDNSKNTVYLQMNSLRAEDTATYYCAPAPMLGQMITQPALPYWGQGTQVTVSS
5 | 0.6 nM | 0.000522 s⁻¹ | 870000 M⁻¹ s⁻¹ | 2.36 nM | 0.000599 s⁻¹ | 253000 M⁻¹ s⁻¹ | 0.608 nM | 0.001 s⁻¹ | 1.71e+06 M⁻¹ s⁻¹ | – | – | – | 5SNP65 hs2dAb (VHH) VHH: VQLQASGGGFVQPGGSLRLSCAASGATYEGEAMGWFRQAPGKEREFVSAISSYPSVISYYADSVKGRFTISRDNSKNTVYLQMNSLRAEDTATYYCAYWVNHEGTIREIYWGQGTQVTVSS
